Marks after values point to notes of the source that are not given here.
How the values were obtained:
[1] = In vivo broiler trial 1, growth performance; parameters: species or system male broiler chickens (ROSS PM3)
[2] = In vivo piglet trial, growth performance; parameters: species or system weaned piglets
Protocol: The trial was performed from Oct. 23 to Dec. 4, 2014 at the Research Center for Animal Nutrition (DSM Nutritional Products France, F-68305 Village-Neuf) according to the official French guidelines for experiments with live animals. One hundred and four castrated male crossbred (Large-White (female)×Redon (male)) weaned piglets having 28 days of age supplied by the commercial farm “[…] du Rhin” located in Balgau (France), were used in a 42-day experiment. The initial bodyweight of the piglets was 7.88±0.675 kg. They were sorted by body weight into 32 groups of 3 or 4 piglets and randomly allotted to each dietary treatment. Each group of animals was placed in one flat-deck cages and allocated to one of the different treatments. Each treatment was replicated with 8 cages using a total of 26 animals (6 cages of 3 animals/treatment and 2 cages of 4 animals/treatment) per treatment. […] Animals were housed in an environmentally controlled room. Room temperature was initially 27° C. and was lowered weekly by about 2° C. until 21-22° C. and relative humidity percentage was 50%. The experimental diets (Pre-Starter and Starter) were fed ad libitum in two feeding phases from day 0 to 14 (phase 1, Pre-starter) and day 14 to 42 (phase 2, Starter). The ingredient composition and the calculated nutrient levels of the experimental diets for phases 1 and 2 are presented in table 11. Both diets were formulated to meet the animals' requirements according NRC (2012) and were fed in pelleted form. Pelleting conditions were at 70° C. for 30 seconds. […] No additional enzymes (e.g. phytase) were added to the feed. […] Appropriate amount of the liquid preparations of lysozyme was diluted in water and sprayed onto the respective pelleted feed to get the final concentrations in the feed corresponding to the different treatments. For procedural balance of all treatments the same volume of water were also sprayed onto the pellets of the control diets. Body weight of the individual animals and feed consumption per pen were recorded on days 14 and 42 of the study. […] The experimental unit was the piglet, except for ADFI and FCR which were measured by cage, and in both cases, treatment was used as class variable. One-factorial ANOVA and Student-Newman-Keuls test was used to assess differences among means in treatment groups.

chicken gut microbiota = experiment: Microbiota analysis of broiler trial 4 (16S rRNA), overall composition; format: in vivo; conditions: 50 ppm; ceca content
[3] = Grower (d 22-36), 25 mg/kg feed
[4] = Grower (d 22-36), 50 mg/kg feed
[5] = Grower (d 22-36), 100 mg/kg feed
[6] = Grower (d 22-36), 200 mg/kg feed
[7] = Starter (d 1-22), 25 mg/kg feed
[8] = Starter (d 1-22), 50 mg/kg feed
[9] = Starter (d 1-22), 100 mg/kg feed
[10] = Starter (d 1-22), 200 mg/kg feed
[11] = Whole period (d 1-36), 25 mg/kg feed
[12] = Whole period (d 1-36), 50 mg/kg feed
[13] = Whole period (d 1-36), 100 mg/kg feed
[14] = Whole period (d 1-36), 200 mg/kg feed

B1: SEQ ID NO: 1: mature amino acid sequence of a wild type GH25 lysozyme from Acremonium alcalophilum with N-terminal SPIRR (protein)
chain: SPIRRRIPGFDISGWQPTTDFARAYANGDRFVYIKATEGTTFKSSAFSRQYTGATQNGFIRGAYHFAQPAASSGAAQARYFASNGGGWSKDGITLPGALDIEYNPNGATCYGLSQSAMVNWIEDFVTTYHGITSRWPVIYTTTDWWTQCTGNSNRFANRCPLWIARYASSVGTLPNGWGFYTFWQYNDKYPQGGDSNWFNGDASRLRALANGD
modifications: Wild type sequence with N-terminal SPIRR
Improvement of FCR compared to the control diet ([1]; 25 mg/kg): 3.3% | Improvement of FCR compared to the control diet ([1]; 50 mg/kg): 2.9% | Improvement of FCR compared to the control diet ([1]; 100 mg/kg): 3.2% | FCR [1, 3]: 1.676^c | FCR, Relative to C (%) [1, 3]: 96.7% | Feed intake [1, 3]: 3004^ab g/b | Feed intake, Relative to C (%) [1, 3]: 98.5% | Weight gain [1, 3]: 1792 g/b | Weight gain, Relative to C (%) [1, 3]: 101.9% | FCR [1, 4]: 1.683^bc | FCR, Relative to C (%) [1, 4]: 97.1% | Feed intake [1, 4]: 2939^ab g/b | Feed intake, Relative to C (%) [1, 4]: 96.4% | Weight gain [1, 4]: 1747 g/b | Weight gain, Relative to C (%) [1, 4]: 99.3% | FCR [1, 5]: 1.662^c | FCR, Relative to C (%) [1, 5]: 95.8% | Feed intake [1, 5]: 2870^b g/b | Feed intake, Relative to C (%) [1, 5]: 94.1% | Weight gain [1, 5]: 1729 g/b | Weight gain, Relative to C (%) [1, 5]: 98.2% | FCR [1, 6]: 1.742^a | FCR, Relative to C (%) [1, 6]: 100.5% | Feed intake [1, 6]: 2934^ab g/b | Feed intake, Relative to C (%) [1, 6]: 96.2% | Weight gain [1, 6]: 1685 g/b | Weight gain, Relative to C (%) [1, 6]: 95.7% | FCR [1, 7]: 1.781^ab | FCR, Relative to C (%) [1, 7]: 98% | Feed intake [1, 7]: 1985 g/b | Feed intake, Relative to C (%) [1, 7]: 99.5% | Weight gain [1, 7]: 1115 g/b | Weight gain, Relative to C (%) [1, 7]: 101.3% | FCR [1, 8]: 1.793^ab | FCR, Relative to C (%) [1, 8]: 98.7% | Feed intake [1, 8]: 1977 g/b | Feed intake, Relative to C (%) [1, 8]: 99.1% | Weight gain [1, 8]: 1102 g/b | Weight gain, Relative to C (%) [1, 8]: 100.1% | FCR [1, 9]: 1.723^bc | FCR, Relative to C (%) [1, 9]: 94.9% | Feed intake [1, 9]: 1941 g/b | Feed intake, Relative to C (%) [1, 9]: 97.3% | Weight gain [1, 9]: 1127 g/b | Weight gain, Relative to C (%) [1, 9]: 102.4% | FCR [1, 10]: 1.696^c | FCR, Relative to C (%) [1, 10]: 93.4% | Feed intake [1, 10]: 1946 g/b | Feed intake, Relative to C (%) [1, 10]: 97.6% | Weight gain [1, 10]: 1148 g/b | Weight gain, Relative to C (%) [1, 10]: 104.2% | FCR [1, 11]: 1.716^bc | FCR, Relative to C (%) [1, 11]: 97.3% | Feed intake [1, 11]: 4991^ab g/b | Feed intake, Relative to C (%) [1, 11]: 98.9% | Weight gain [1, 11]: 2908 g/b | Weight gain, Relative to C (%) [1, 11]: 101.6% | FCR [1, 12]: 1.727^b | FCR, Relative to C (%) [1, 12]: 97.9% | Feed intake [1, 12]: 4920^ab g/b | Feed intake, Relative to C (%) [1, 12]: 97.5% | Weight gain [1, 12]: 2849 g/b | Weight gain, Relative to C (%) [1, 12]: 99.6% | FCR [1, 13]: 1.686^c | FCR, Relative to C (%) [1, 13]: 95.6% | Feed intake [1, 13]: 4815^b g/b | Feed intake, Relative to C (%) [1, 13]: 95.4% | Weight gain [1, 13]: 2856 g/b | Weight gain, Relative to C (%) [1, 13]: 99.8% | FCR [1, 14]: 1.722^b | FCR, Relative to C (%) [1, 14]: 97.6% | Feed intake [1, 14]: 4877^ab g/b | Feed intake, Relative to C (%) [1, 14]: 96.6% | Weight gain [1, 14]: 2832 g/b | Weight gain, Relative to C (%) [1, 14]: 99% | Improvement of weight gain compared to the control diet ([1]; day 1 to day 36, 25 mg/kg): 1.6% | Improvement of FCR compared to the control diet ([1]; starter period, 25 mg/kg): 2.0% | Improvement of weight gain compared to the control diet ([1]; starter period, 25 mg/kg): 1.3% | Improvement of FCR compared to the control diet ([1]; starter period, 100 mg/kg): 5.1% | Improvement of weight gain compared to the control diet ([1]; starter period, 100 mg/kg): 2.4% | Improvement of FCR compared to the control diet ([1]; starter period, 200 mg/kg): 6.6% | Improvement of weight gain compared to the control diet ([1]; starter period, 200 mg/kg): 4.2% | ADFI, % relative NC ([2]; day 0-14, 50 ppm): 90.0% | ADFI, Mean ([2]; day 0-14, 50 ppm): 324 g/day | ADWG, % relative NC ([2]; day 0-14, 50 ppm): 96.2% | ADWG, Mean ([2]; day 0-14, 50 ppm): 279 g/day | FCR, % relative NC ([2]; day 0-14, 50 ppm): 94.4% | FCR, Mean ([2]; day 0-14, 50 ppm): 1.170^a | ADFI, % relative NC ([2]; day 0-42, 50 ppm): 93.1% | ADFI, Mean ([2]; day 0-42, 50 ppm): 683^a g/d | ADWG, % relative NC ([2]; day 0-42, 50 ppm): 102.4% | ADWG, Mean ([2]; day 0-42, 50 ppm): 511 g/day | EPEF, % relative NC ([2]; day 0-42, 50 ppm): 113.0% | EPEF, Mean ([2]; day 0-42, 50 ppm): 383 | FCR, % relative NC ([2]; day 0-42, 50 ppm): 90.4% | FCR, Mean ([2]; day 0-42, 50 ppm): 1.341^a | ADFI, % relative NC ([2]; day 14-42, 50 ppm): 92.7% | ADFI, Mean ([2]; day 14-42, 50 ppm): 862^a g/d | ADWG, % relative NC ([2]; day 14-42, 50 ppm): 104.0% | ADWG, Mean ([2]; day 14-42, 50 ppm): 627 g/day | FCR, % relative NC ([2]; day 14-42, 50 ppm): 89.3% | FCR, Mean ([2]; day 14-42, 50 ppm): 1.379^a | Improvement on FCR compared to the negative control ([2]; overall period (day 0 to day 42), 50 mg/kg): 9.6% | Improvement to FCR compared to NC ([2]; starter period, day 15 to day 42, 50 mg/kg): 11.3% | Improvement of ADWG compared to the negative control diet ([2]; starter period, 50 mg/kg): 4.0% | EPEF improvement compared to the negative control ([2]; whole period, 50 mg/kg): 13.0% | Improvement of ADWG compared to the negative control diet ([2]; whole period, 50 mg/kg): 2.4% | Observed shift in the composition of the microbiota compared to the control group, Significance (chicken gut microbiota): +++ (Significant change (+++), p-value < 0.05)

From patent US10568344B2, “Methods of improving animal performance” (Novozymes A/S, priority 2015, dated 2020)
